Values belong to the binder of their own block, whether it stands above or below them.
Tests used:
4H906-bA = target: T1, 4H906-bA; assay: two-hybrid library CCNG1;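 also: natural log of median RNA to DNA barcode read ratio; higher means stronger binding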
T1 chain: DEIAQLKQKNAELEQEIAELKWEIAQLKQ

4H3613-bA = target: T2, 4H3613-bA; assay: two-hybrid library CCNG1;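 also: natural log of median RNA to DNA barcode read ratio; higher means stronger binding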
T2 chain: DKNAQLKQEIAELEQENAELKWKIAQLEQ

4H477-bA = target: T3, 4H477-bA; assay: two-hybrid library CCNG1;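 also: natural log of median RNA to DNA barcode read ratio; higher means stronger binding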
T3 chain: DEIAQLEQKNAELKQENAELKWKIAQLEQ

4H348-bA = target: T4, 4H348-bA; assay: two-hybrid library CCNG1;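 also: natural log of median RNA to DNA barcode read ratio; higher means stronger binding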
T4 chain: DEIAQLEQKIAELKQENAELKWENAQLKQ

4H3926-bA = target: T5, 4H3926-bA; assay: two-hybrid library CCNG1;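 also: natural log of median RNA to DNA barcode read ratio; higher means stronger binding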
T5 chain: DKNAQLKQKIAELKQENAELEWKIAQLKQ

4H492-bA = target: T6, 4H492-bA; assay: two-hybrid library CCNG1;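 also: natural log of median RNA to DNA barcode read ratio; higher means stronger binding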
T6 chain: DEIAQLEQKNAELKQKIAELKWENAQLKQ

4H3277-bA = target: T7, 4H3277-bA; assay: two-hybrid library CCNG1
T7 chain: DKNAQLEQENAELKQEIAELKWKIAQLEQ

4H3298-bA = target: T8, 4H3298-bA; assay: two-hybrid library CCNG1
T8 chain: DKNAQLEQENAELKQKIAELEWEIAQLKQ

4H3497-bA = target: T9, 4H3497-bA; assay: two-hybrid library CCNG1
T9 chain: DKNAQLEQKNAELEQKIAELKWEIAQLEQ

4H741-bA = target: T10, 4H741-bA; assay: two-hybrid library CCNG1
T10 chain: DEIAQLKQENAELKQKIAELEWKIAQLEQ

4H3628-bA = target: T11, 4H3628-bA; assay: two-hybrid library CCNG1
T11 chain: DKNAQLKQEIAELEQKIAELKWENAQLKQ

4H591-bA = target: T12, 4H591-bA; assay: two-hybrid library CCNG1
T12 chain: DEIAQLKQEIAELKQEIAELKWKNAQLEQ

4H40-bA = target: T13, 4H40-bA; assay: two-hybrid library CCNG1
T13 chain: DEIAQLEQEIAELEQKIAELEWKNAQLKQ

4H3462-bA = target: T14, 4H3462-bA; assay: two-hybrid library CCNG1
T14 chain: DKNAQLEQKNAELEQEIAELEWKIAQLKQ

4H626-bA = target: T15, 4H626-bA; assay: two-hybrid library CCNG1
T15 chain: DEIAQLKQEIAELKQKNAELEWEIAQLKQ

4H3638-bA = target: T16, 4H3638-bA; assay: two-hybrid library CCNG1
T16 chain: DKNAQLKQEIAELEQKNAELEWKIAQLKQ

4H656-AA = target: T17, 4H656-AA; assay: two-hybrid library CCmax; details: mean of both orientations
T17 chain: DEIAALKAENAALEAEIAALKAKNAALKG

4H3066-AA = target: T18, 4H3066-AA; assay: two-hybrid library CCmax; details: mean of both orientations
T18 chain: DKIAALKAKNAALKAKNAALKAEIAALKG

4H2248-AA = target: T19, 4H2248-AA; assay: two-hybrid library CCmax
T19 chain: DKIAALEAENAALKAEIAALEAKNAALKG

4H497-AA = target: T20, 4H497-AA; assay: two-hybrid library CCmax; details: mean of both orientations
T20 chain: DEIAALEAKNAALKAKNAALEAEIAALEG

4H3446-AA = target: T21, 4H3446-AA; assay: two-hybrid library CCmax; details: mean of both orientations
T21 chain: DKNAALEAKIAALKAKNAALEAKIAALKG

4H971-AA = target: T22, 4H971-AA; assay: two-hybrid library CCmax; details: mean of both orientations
T22 chain: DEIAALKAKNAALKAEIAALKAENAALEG

4H391-AA = target: T23, 4H391-AA; assay: two-hybrid library CCmax; details: mean of both orientations
T23 chain: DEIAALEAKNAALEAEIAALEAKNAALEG

4H3628-AA = target: T24, 4H3628-AA; assay: two-hybrid library CCmax; details: mean of both orientations
T24 chain: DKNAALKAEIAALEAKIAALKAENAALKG

4H3121-AA = target: T25, 4H3121-AA; assay: two-hybrid library CCmax; details: mean of both orientations
T25 chain: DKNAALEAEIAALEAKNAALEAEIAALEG

4H3709-AA = target: T26, 4H3709-AA; assay: two-hybrid library CCmax; details: mean of both orientations
T26 chain: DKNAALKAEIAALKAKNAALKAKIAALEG

4H2283-AA = target: T27, 4H2283-AA; assay: two-hybrid library CCmax; details: mean of both orientations
T27 chain: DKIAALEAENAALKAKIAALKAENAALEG

4H2742-AA = target: T28, 4H2742-AA; assay: two-hybrid library CCmax; details: mean of both orientations
T28 chain: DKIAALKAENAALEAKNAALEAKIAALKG

4H3029-AA = target: T29, 4H3029-AA; assay: two-hybrid library CCmax; details: mean of both orientations
T29 chain: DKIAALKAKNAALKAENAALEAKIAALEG

4H3920-AA = target: T30, 4H3920-AA; assay: two-hybrid library CCmax; details: mean of both orientations
T30 chain: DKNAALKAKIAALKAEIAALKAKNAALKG

4H428-AA = target: T31, 4H428-AA; assay: two-hybrid library CCmax; details: mean of both orientations
T31 chain: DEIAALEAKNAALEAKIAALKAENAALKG

4H2713-AA = target: T32, 4H2713-AA; assay: two-hybrid library CCmax; details: mean of both orientations
T32 chain: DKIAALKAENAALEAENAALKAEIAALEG

4H3591-AA = target: T33, 4H3591-AA; assay: two-hybrid library CCmax; details: mean of both orientations
T33 chain: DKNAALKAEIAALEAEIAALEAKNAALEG

4H675-AA = target: T34, 4H675-AA; assay: two-hybrid library CCmax; details: mean of both orientations
T34 chain: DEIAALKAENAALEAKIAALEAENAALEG

4H478-AA = target: T35, 4H478-AA; assay: two-hybrid library CCmax; details: mean of both orientations
T35 chain: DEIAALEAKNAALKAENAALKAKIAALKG

4H2948-AA = target: T36, 4H2948-AA; assay: two-hybrid library CCmax; details: mean of both orientations
T36 chain: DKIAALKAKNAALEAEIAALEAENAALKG

4H3102-AA = target: T37, 4H3102-AA; assay: two-hybrid library CCmax; details: mean of both orientations
T37 chain: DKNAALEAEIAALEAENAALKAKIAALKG

4H2991-AA = target: T38, 4H2991-AA; assay: two-hybrid library CCmax; details: mean of both orientations
T38 chain: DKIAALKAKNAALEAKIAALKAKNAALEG

4H3666-AA = target: T39, 4H3666-AA; assay: two-hybrid library CCmax; details: mean of both orientations
T39 chain: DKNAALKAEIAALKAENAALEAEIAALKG

4H3939-AA = target: T40, 4H3939-AA; assay: two-hybrid library CCmax; details: mean of both orientations
T40 chain: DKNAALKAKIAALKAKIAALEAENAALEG

4H3417-AA = target: T41, 4H3417-AA; assay: two-hybrid library CCmax; details: mean of both orientations
T41 chain: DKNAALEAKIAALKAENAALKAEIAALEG

O4 = target: T42, O4; assay: two-hybrid library CCNG1
T42 chain: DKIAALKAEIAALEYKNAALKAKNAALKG

O7 = target: T43, O7; assay: two-hybrid library CCNG1
T43 chain: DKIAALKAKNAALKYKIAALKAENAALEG

O5 = target: T44, O5; assay: two-hybrid library CCNG1
T44 chain: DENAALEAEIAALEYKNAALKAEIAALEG

O8 = target: T45, O8; assay: two-hybrid library CCNG1
T45 chain: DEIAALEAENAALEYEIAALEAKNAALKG

O9 = target: T46, O9; assay: two-hybrid library CCNG1
T46 chain: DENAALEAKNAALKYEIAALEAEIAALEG

O6 = target: T47, O6; assay: two-hybrid library CCNG1
T47 chain: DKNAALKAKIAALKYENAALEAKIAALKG

4H2839-bN = target: T48, 4H2839-bN; assay: two-hybrid library CCNG1
T48 chain: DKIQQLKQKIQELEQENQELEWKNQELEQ

4H492-bN = target: T49, 4H492-bN; assay: two-hybrid library CCNG1
T49 chain: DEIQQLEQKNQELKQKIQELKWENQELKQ

4H3277-bN = target: T50, 4H3277-bN; assay: two-hybrid library CCNG1
T50 chain: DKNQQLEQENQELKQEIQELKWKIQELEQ

4H477-bN = target: T51, 4H477-bN; assay: two-hybrid library CCNG1
T51 chain: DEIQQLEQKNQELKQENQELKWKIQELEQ

4H2717-bN = target: T52, 4H2717-bN; assay: two-hybrid library CCNG1
T52 chain: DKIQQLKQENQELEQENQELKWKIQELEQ

4H3057-bN = target: T53, 4H3057-bN; assay: two-hybrid library CCNG1
T53 chain: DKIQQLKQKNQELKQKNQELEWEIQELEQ

4H348-bN = target: T54, 4H348-bN; assay: two-hybrid library CCNG1
T54 chain: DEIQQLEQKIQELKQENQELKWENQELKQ

4H741-bN = target: T55, 4H741-bN; assay: two-hybrid library CCNG1
T55 chain: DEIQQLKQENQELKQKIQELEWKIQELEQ

4H319-bN = target: T56, 4H319-bN; assay: two-hybrid library CCNG1
T56 chain: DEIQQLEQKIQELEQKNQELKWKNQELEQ

4H40-bN = target: T57, 4H40-bN; assay: two-hybrid library CCNG1
T57 chain: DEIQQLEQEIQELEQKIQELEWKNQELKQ

4H2915-bN = target: T58, 4H2915-bN; assay: two-hybrid library CCNG1
T58 chain: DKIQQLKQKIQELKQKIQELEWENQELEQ

- interaction score (4H906-bA): -1.46
- interaction score (4H3638-bA): -1.05
- interaction score (4H3613-bA): -0.827
- interaction score (4H3926-bA): 0.717
- interaction score (4H3497-bA): 0.917
- interaction score (4H3628-bA): -1.42
- interaction score (4H591-bA): 0.153
- interaction score (4H3462-bA): 0.257
- interaction score (4H626-bA): -0.693
Binder: DKNAQLEQKNAELEQEIAELEWKIAQLKQ [4H3462-bA]

- interaction score (4H906-bA): -0.638
- interaction score (4H3613-bA): 0.681
- interaction score (4H3926-bA): -0.651
- interaction score (4H3298-bA): 1.02
- interaction score (4H3497-bA): -0.263
- interaction score (4H3628-bA): -0.0439
- interaction score (4H591-bA): -0.699
- interaction score (4H3462-bA): 0.667
- interaction score (4H626-bA): -1.12
Binder: DKNAQLEQENAELKQKIAELEWEIAQLKQ [4H3298-bA]

Second part, the binder before the results:

Binder: DKNAQLEQENAELKQEIAELKWKIAQLEQ [4H3277-bA]
- interaction score (4H906-bA): -0.838
- interaction score (4H3613-bA): -0.514
- interaction score (4H477-bA): -0.644
- interaction score (4H348-bA): -0.856
- interaction score (4H3926-bA): -0.539
- interaction score (4H492-bA): -0.379
- interaction score (4H3277-bA): 1.38
- interaction score (4H3298-bA): -0.215
- interaction score (4H3497-bA): -0.961
- interaction score (4H741-bA): -1.81
- interaction score (4H3628-bA): -0.955
- interaction score (4H591-bA): -1.19
- interaction score (4H40-bA): -1.08
- interaction score (4H3462-bA): -0.372
- interaction score (4H626-bA): -0.429

Binder: DKIAALEAENAALKAEIAALEAKNAALKG [4H2248-AA]
- interaction score (4H656-AA): -0.26
- interaction score (4H3066-AA): -1.25
- interaction score (4H2248-AA): 2.16
- interaction score (4H497-AA): -2.18
- interaction score (4H3446-AA): 0.189
- interaction score (4H971-AA): 1.05
- interaction score (4H391-AA): -1.16
- interaction score (4H3628-AA): -1.59
- interaction score (4H3121-AA): -1.69
- interaction score (4H3709-AA): -1.23
- interaction score (4H2283-AA): 2.34
- interaction score (4H2742-AA): -1.88
- interaction score (4H3029-AA): -1.79
- interaction score (4H3920-AA): -1.51
- interaction score (4H428-AA): -0.478
- interaction score (4H2713-AA): -1.2
- interaction score (4H3591-AA): -1.39
- interaction score (4H675-AA): 0.827
- interaction score (4H478-AA): 0.536
- interaction score (4H2948-AA): -0.353
- interaction score (4H3102-AA): 2.22
- interaction score (4H2991-AA): -0.183
- interaction score (4H3666-AA): -0.505
- interaction score (4H3939-AA): -1.4
- interaction score (4H3417-AA): 0.548

Binder: DKIAALKAEIAALEYKNAALKAKNAALKG [O4]
- interaction score (O4): -2.15
- interaction score (O7): -2.43
- interaction score (O5): -2.52
- interaction score (O8): -2.07
- interaction score (O9): -1.88
- interaction score (O6): -2.27

Binder: DKIQQLKQENQELEQENQELKWKIQELEQ [4H2717-bN]
- interaction score (4H2839-bN): -0.648
- interaction score (4H492-bN): -0.854
- interaction score (4H3277-bN): -1.11
- interaction score (4H477-bN): 1.4
- interaction score (4H2717-bN): 0.00236
- interaction score (4H3057-bN): -1.99
- interaction score (4H348-bN): -0.289
- interaction score (4H741-bN): -2.58
- interaction score (4H319-bN): -0.684
- interaction score (4H40-bN): -1.61
- interaction score (4H2915-bN): -0.6
